Measured values reported in publication PMC11849073, “Specific recognition mechanism of an antibody to sulfated tyrosine and its potential use in biological research” (The Journal of Biological Chemistry, 2025).

Columns and labels:
[1] = molecular target: BA8 Fab S32 A mutant (heavy chain) (rabbit); assay: SPR; Biacore 8K; each Fab immobilised on a CM5 chip by amine coupling (pH 5.5, about 3000 RU); peptides as analytes, 2 to 162 nM (20 nM to 1620 nM for the R34 A, S52 A and Y57 A mutants of Fig. 3C); PBS with 0.005% Tween 20; 30 μl/min; global fitting
[2] = molecular target: BA8 Fab Y57 F mutant (heavy chain) (rabbit); assay: as above
[3] = molecular target: BA8 Fab LC S98 A mutant (light chain) (rabbit); assay: as above
[4] = molecular target: BA8 Fab S30 A mutant (heavy chain) (rabbit); assay: as above
[5] = molecular target: BA8 Fab N55 A mutant (heavy chain) (rabbit); assay: as above
[6] = molecular target: BA8 Fab Y31 A mutant (heavy chain) (rabbit); assay: as above
[7] = molecular target: BA8 Fab W46 A mutant (heavy chain) (rabbit); assay: as above
[8] = molecular target: BA8 Fab Y57 A mutant (heavy chain) (rabbit); assay: as above
[9] = molecular target: BA8 Fab S32 A mutant (heavy chain) (rabbit); assay: ITC; MicroCal PEAQ-ITC; 10 μM BA8 Fab in the cell, 100 μM CCR5 N-terminal peptide in the syringe; PBS; 25 °C (297 K in the table's footnote); one set of sites
[10] = molecular target: BA8 Fab S52 A mutant (heavy chain) (rabbit); assay: as above
[11] = molecular target: BA8 Fab Y57 F mutant (heavy chain) (rabbit); assay: as above
[12] = molecular target: BA8 Fab LC S98 A mutant (light chain) (rabbit); assay: as above
[13] = molecular target: BA8 Fab S30 A mutant (heavy chain) (rabbit); assay: as above
[14] = molecular target: BA8 Fab N55 A mutant (heavy chain) (rabbit); assay: as above
[15] = molecular target: BA8 Fab Y31 A mutant (heavy chain) (rabbit); assay: as above
[16] = molecular target: BA8 Fab W46 A mutant (heavy chain) (rabbit); assay: as above
[17] = molecular target: BA8 Fab Y57 A mutant (heavy chain) (rabbit); assay: as above

BA8 Fab Y57 F mutant (heavy chain) (rabbit), sequence (heavy, as listed by the source, chain 1 of 2): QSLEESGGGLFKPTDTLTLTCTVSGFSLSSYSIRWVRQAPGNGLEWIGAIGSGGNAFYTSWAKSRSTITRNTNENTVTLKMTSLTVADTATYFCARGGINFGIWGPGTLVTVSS
BA8 Fab Y57 F mutant (heavy chain) (rabbit), sequence (light, as listed by the source, chain 2 of 2): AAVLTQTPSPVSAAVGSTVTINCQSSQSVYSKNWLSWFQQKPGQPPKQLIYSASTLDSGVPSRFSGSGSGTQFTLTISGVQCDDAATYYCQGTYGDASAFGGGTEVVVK
BA8 Fab LC S98 A mutant (light chain) (rabbit), sequence (heavy, as listed by the source, chain 1 of 2): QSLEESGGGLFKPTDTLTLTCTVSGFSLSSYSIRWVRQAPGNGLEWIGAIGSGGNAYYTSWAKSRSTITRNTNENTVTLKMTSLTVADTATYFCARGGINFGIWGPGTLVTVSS
BA8 Fab LC S98 A mutant (light chain) (rabbit), sequence (light, as listed by the source, chain 2 of 2): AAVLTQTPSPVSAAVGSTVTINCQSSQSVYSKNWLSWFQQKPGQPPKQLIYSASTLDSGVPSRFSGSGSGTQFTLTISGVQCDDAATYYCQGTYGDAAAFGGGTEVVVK
BA8 Fab Y57 A mutant (heavy chain) (rabbit), sequence (heavy, as listed by the source, chain 1 of 2): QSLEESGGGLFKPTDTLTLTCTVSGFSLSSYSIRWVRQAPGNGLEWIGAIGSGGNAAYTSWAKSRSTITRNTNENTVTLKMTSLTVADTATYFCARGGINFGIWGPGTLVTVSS
BA8 Fab W46 A mutant (heavy chain) (rabbit), sequence (heavy, as listed by the source, chain 1 of 2): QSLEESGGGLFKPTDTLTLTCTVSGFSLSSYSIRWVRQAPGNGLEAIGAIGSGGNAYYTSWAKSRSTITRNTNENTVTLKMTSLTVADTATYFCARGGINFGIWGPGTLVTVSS
BA8 Fab S30 A mutant (heavy chain) (rabbit), sequence (heavy, as listed by the source, chain 1 of 2): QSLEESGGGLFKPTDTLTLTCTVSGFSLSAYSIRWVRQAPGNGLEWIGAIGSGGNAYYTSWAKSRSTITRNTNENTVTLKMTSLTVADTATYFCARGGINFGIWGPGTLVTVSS
BA8 Fab S32 A mutant (heavy chain) (rabbit), sequence (heavy, as listed by the source, chain 1 of 2): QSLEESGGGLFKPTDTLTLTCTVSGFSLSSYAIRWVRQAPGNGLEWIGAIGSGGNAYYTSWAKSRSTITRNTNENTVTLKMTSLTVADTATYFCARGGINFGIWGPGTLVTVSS
BA8 Fab S52 A mutant (heavy chain) (rabbit), sequence (heavy, as listed by the source, chain 1 of 2): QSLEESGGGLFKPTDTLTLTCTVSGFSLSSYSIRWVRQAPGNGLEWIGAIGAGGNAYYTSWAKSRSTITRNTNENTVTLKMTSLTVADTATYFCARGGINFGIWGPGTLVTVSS
BA8 Fab Y31 A mutant (heavy chain) (rabbit), sequence (heavy, as listed by the source, chain 1 of 2): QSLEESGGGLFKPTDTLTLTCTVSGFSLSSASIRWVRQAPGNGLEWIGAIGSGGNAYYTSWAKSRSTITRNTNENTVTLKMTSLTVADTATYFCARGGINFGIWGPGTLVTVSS
BA8 Fab N55 A mutant (heavy chain) (rabbit), sequence (heavy, as listed by the source, chain 1 of 2): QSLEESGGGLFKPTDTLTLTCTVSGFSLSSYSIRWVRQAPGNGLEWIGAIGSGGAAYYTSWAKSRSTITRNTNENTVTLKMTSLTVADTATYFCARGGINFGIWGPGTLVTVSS

- Kd [1]: 1.94 nM
- Kd [2]: 2.36 nM
- Kd [3]: 2.41 nM
- Kd [4]: 1.44 nM
- Kd [5]: 1.8 nM
- Kd [6]: 18.6 nM
- Kd [7]: 21.8 nM
- Kd [8]: 446 nM
- dH [9]: -26 kcal/mol
- stoichiometry N [9]: 0.903 sites
- Kd [10]: 726 nM
- dH [10]: -16.6 kcal/mol
- stoichiometry N [10]: 0.796 sites
- Kd [11]: 10.5 nM
- dH [11]: -25 kcal/mol
- stoichiometry N [11]: 0.896 sites
- dH [12]: -26.2 kcal/mol
- stoichiometry N [12]: 0.924 sites
- dH [13]: -25.8 kcal/mol
- stoichiometry N [13]: 0.892 sites
- dH [14]: -27.6 kcal/mol
- stoichiometry N [14]: 0.844 sites
- Kd [15]: 4.41 nM
- dH [15]: -22.8 kcal/mol
- stoichiometry N [15]: 0.839 sites
- Kd [16]: 6.1 nM
- dH [16]: -27.2 kcal/mol
- stoichiometry N [16]: 0.824 sites
- Kd [17]: 73.7 nM
- dH [17]: -21.7 kcal/mol
- stoichiometry N [17]: 0.854 sites
Substance: sulfated N-terminal peptide of CCR5 (Pro8 to Ser18 with sulfated Tyr10, Tyr14 and Tyr15)
